According to a protein production outcome set (Wang et al. 2014):

test: label from the status in PepcDB records

Row | Sequence | protein production
1 | MVGEEDSERAQSSKMEIERESNLGSASVLMQSKVISVSNFFSIHRFHYPREKIVSFLFPSVFSRIMASYGEEREIQKNYWKEHSVGLSVEAMMLDSKASDLDKEERPEILAFLPPIEGTTVLEFGAGIGRFTTELAQKAGQVIAVDFIESVIKKNENINGHYKNVKFLCADVTSPNMNFPNESMDLIFSNWLLMYLSDQEVEDLAKKMLQWTKVGGYIFFRESCFHQSGDNKRKYNPTHYREPKFYTKLFKECHMNDEDGNSYELSLVSCKCIGAYVRNKKNQNQICWLWQKVSSDNDRGFQRFLDNVQYKSSGILRYERVFGEGFVSTGGLETTKEFVDMLDLKPGQKVLDVGCGIGGGDFYMAENFDVDVVGIDLSVNMISFALEHAIGLKCSVEFEVADCTKKEYPDNTFDVIYSRDTILHIQDKPALFRRFYKWLKPGGKVLITDYCRSPKTPSPDFAIYIKKRGYDLHDVQAYGQMLRDAGFEEVIAEDRTDQFMKVLKRELDAVEKEKEEFISDFSKEDYEDIIGGWKSKLLRSSSGEQKWGLFIAKRN | failed
2 | MVGNVRHYLFYANSSELQQQMMNRKSHFNLSQTTQEWLIGKGYNPEDLEQPGENGDSALMKATREGVDAVVKELIDLGVDINARNNDNNNALWFACFGNHYDLIHLLLAAKINIDNQNDNGATVLMYAASAGKTEVVKLLLQYHPNLYLRNLDDFQAIDFASNVEVLRLLKNATK | failed
3 | MVGQIAKEMGLRAYIVGGVVRDILLGKEVWDVDFVVEGNAIELAKELARRHGVNVHPFPEFGTAHLKIGKLKLEFATARRETYPRPGAYPKVEPASLKEDLIRRDFTINAMAISVNLEDYGTLIDYFGGLRDLKDKVIRVLHPVSFIEDPVRILRALRFAGRLNFKLSRSTEKLLKQAVNLGLLKEAPRGRLINEIKLALREDRFLEILELYRKYRVLEEIIEGFQWNEKVLQKLYALRKVVDWHALEFSEERIDYGWLYLLILISNLDYERGKHFLEEMSAPSWVRETYKFMKFKLGSLKEELKKAKENYEVYRLLKPLHTSVLLLLMLEEELKEKIKLYLEKLRKVKLPKEKIEELKKQGLKGKELGERIEELKREIMNKIKLAAALE | not failed
4 | MVGQVIRKRGAYPEYTVEDVLAVIFLLKEPLGRKQISERLELGEGSVRTLLRKLSHLDIIRSKQRGHFLTLKGKEIRDKLLSMFSEPIGVSVDGYPGIAIVVKNPPEFKSIELRDEAIKFDAKGAMILTVKDNEIVFPEDFRPLKEMYPEVAKKIVDYEDGDAVIITWAETPAKALKSAIHVAYILKKEEITPEILEVVK | not failed
5 | MVGSSETETKEHREAEERSSRESATATGKVSGKENELRPTYVYLLMMPENHNVDVQQTLQEQRKRNIKKARIEARLKLDQIRPTVVLENSRATKMMIEWGFTDFRKLQGSNLGNKKWICWVRKHCC | not failed
6 | MVHAFLIHTLRAPNTEDTGLCRVLYSCVFGAEKSPDDPRPHGAERDRLLRKEQILAVARQVESMCRLQQQASGRPPMDLQPQSSDEQVPLHEAPRGAFRLAAENPFQEPRTVVWLGVLSLGFALVLDAHENLLLAEGTLRLLTRLLLDHLRLLAPSTSLLLRADRIEGILTRFLPHGQLLFLNDQFVQGLEKEFSAAWPR | failed
7 | MVHEKKKMRKNHKKITHKGKKITTGAASVLLGAGIVVGANARPVKATSSREDEITEVDTINVISSETEKADVEQRTDTTETVETEGNVDNTNTEVSVPIDETINTEAQAANNTTQVESTVEDTTQEETTETQQNPSVDNQEPVLSDPPSVESPEDSATEVTTTKTTDEVKNAADEANKENKDKLDAEINKAEDNGHTVTQDGDKVYKADATNIDKIIEDLNQFTADQITDIETKLAKYKEELEAYKADQVRYEAELKNYQTAKDAYVKKLEEWGLYKPGDIDPSDISQSLILGEEKNSKVEVLNKGSVVDEGTGSILNGLLNHFYTIDEKFDGEFLKLQYTNLENITYMGKNIDSIQIIFSGWNPNYKGKNADKRTSGIYFSDKLTDGFFYVNSDGVTMEMILFENGKTINLDKNSAYITAGSLNSQGTGNDYIEKAEIFNNSSEYGGSAVTFQDSFIRRHDGTYGGDVLYADQNIEVLAVYPGKDQTLEDAIEEQKKLALEAGWKQEIIDKFINWDSSTDRSKAIFGAGAFMVYGNKIKIRFSNGIGSAWATYSTSIPGMAFREEKPKEPTVPEPPKLDLTYTPGHIELSKSNVHIHYVDVHDTAQAGKNDSFVPDDGIELDDHVDHQLDLLIGTGYNHDLWNFEDAGYILAEEIKDGVQNGTVIKDDQHHYVYLKHKFIPTTDEENEKKDVNQVIHYVYDATGETAYKDYHAVTLHFIKSGQKDVVNGNIIWGNWTLAQDFAGVKSPSIEGYHLKDKNDDVVGPYTIEVTEKNYQNNLDVEYTVRYVANATQELNLKKEVNQVIHYIYENGTKAHDDYHALTLLFEKKGIKDLETGEETWGEWTKTQTFVVVKSPDIQNYIADRLEVGPYEITVTDENYKTNLDKDDIVIYRARIEEVTRDKVVNQVIHYIYEDGSTARPDHVSVKLVFTQTGVKNLATNTTNWNGEWTKTQTFVVVKSPEIEGYTADREEVGPYDITVTNENYNDKLDKEDTVIYRANTNVPDNPDPDNPTPDNPDPDNPTPDTPTPDPTPGDDEEIATPPLPEDEIGNYPSQSDEDDEEERTAPHATGKETRSGTNKNNARVISLENAGSDDSVTPENVSTEATDKTDEKQTTVNSTNEKTLPATGEEKDDFAKVMSGLAAALGITGLAVTSKRRKATAKRSKKDKKNGK | failed
8 | MVIDLAVDCQRQAAVLRQQRLRTARRVDDGQTLVHQDGTGIDVHAAPVRPAMALPLRTFQGLPAQGLQVVAGLQAEDTEDGTHGNTPGKVVMGGRRINTVQDITHKKNPHRPMRVFWKLGVCVGTSPSRRPASAAHDYSRADCCGDWRWRRWTETMSWADRIPLSAATQLLRWQPSRAGKPGIPRPPRDRGRVARIMSPPSSEASAMTPRIGRLAFAALIPLVLLQGCSTTAPRTEPAKLRQLEQTAADGSFDSIWEVASQLESRNDPRAIGWYERAAATTPWTFRNALAELALGRIWASGTLTHADSPYIDQRAALRASPRKGERWYLAAAMHGNPYAIRELAKFHRERGEAAAALRWDLRVAIYERAASGPSGLPAAIAPRDGDIHPLVRDIQRRARGGDAEAQVDLGALYEKGMGGMNRDGAEALRWYRRAADQGNVYGQYFYALLLGRGSSGVTRDEETAAIWFAKASAQRFYIADASHWREAIKPPFWTFD | failed
9 | MVIGQKVLLARIPKMGDNYSTYLLDIEGTVCPISFVKETLFPYFTNKVPQLVQQDTRDSPVSNILSQFHIDNKEQLQAHILELVAKDVKDPILKQLQGYVWAHGYESGQIKAPVYADAIDFIKRKKRVFIYSSGSVKAQKLLFGYVQDPNAPAHDSLDLNSYIDGYFDINTSGKKTETQSYANILRDIGAKASEVLFLSDNPLELDAAAGVGIATGLASRPGNAPVPDGQKYQVYKNFETL | not failed
10 | MVIINTAAYHFVSITQPQTLADQIRAHGEIAGLKGTVLIANEGINLFLAGEKEAINAFYAWLCADVRFAALHVKYSVSAYKPFARFKVKVRPEIISFRRGDISPLQVRAPGVSAHTLRDWLRRGCDDNGRRLVMLDARNQQEIAYGTFSGAMTLPITKFTGFPGALAHYRDLLSDATVVSFCTGGIRCEKAVLWMRADGMDNVLQLEGGILGYFEQVGGEGYDGRCFVFDKRVALDPQLRPLYDMRVVASFARSEIS | failed
11 | MVINIRRSRPDEGDKLTAIWCRSVDATHDFLTKAYRKELEEMVRAFLPEAPLWVAVSTEDQPIAFMLLTGDHMDALFVDPDVRGCGVGKLLIEHALSLTPKLTTNVNEQNEQAVGFYQKMGFRVTGRSETDDLGQPYPLLNLMYEQQAEADYD | not failed
12 | MVIPALPKIEDQFSTSATTVAWITSAYLIVGAVASPVFGKLGDRYGKKKIYLLAIAFYSLAVLIAGFSTNIYMLIFARAIQGLGFAVFPIAIAIITDLFPRERVAWAQSILSATLALGPALGLLIGAYIVQDLGWQYAFHTAFILSIILMFISIRFIQEIPSKTKERIDYLGAVFLMLAVISLLVYLTEGPSIGWFSATQFSLILTSIISFGVFIFVERRVAEPLMKLDLFRIRNIMVANISGLIAGTAMFLMFIGLTYYAQLPKPYGLGLSIIDSGLLMAPVALTMMVVGPIVGRLINSTGPKPLLIFGSIVGIIGFLLLNAFNSTNIQVLLDTVVASVGIISLMIPLVNMVAVSLPEDQRGVGIGMNTLIRSIGSSVGPVISTVFMDTYTAWIGYLFNNQYLPIASVPSSEAFHYIYLVGICLMFINLLVALLTKNYVLKQKVKTTESVV | failed
13 | MVKGDITTAFIAEEYPDGFQGAVLDEPTLRRVAAAAAAMNRVAEIRRTRISGTMNNHERHVGVDWVVALQGESYHVSIAADREGSTVSFSDGSSLRVTSDWTPGQPLEHHHHHH | failed
14 | MVKGKVINLHPTSSRFFKIGIKHYERGEIELAIERLKRALELDSKNIEIKFNLAGLLAQIGDFESSNKLLTELTTDNPEFYDSLFGLGCNFFEMGKLREAKHFLRRYLKLSNNTEFKEAAEDLLDFIETQQEFEREQKEMEKLTKLLERGNFLLENGRYEDAVKYFKMILAKDDTIFAARNNLSLAYFYMGEIEKAIHEAKKVLEIDKYNVYANCNLAFFYSTIGKTKELKKQLKTILELKTYDHKDKIKVLDTLIKLNQHAAIVDRAGELFEITKEPYFRHIQAISLYNTKQYIKAKKIWKDLKKNYNMPEIKIDYFLKKIDDVMKTFKKDTIDYFETGFGNLSKLEEKEFRSQLQKHIDMYFSQTFEENAKRIMDIIAENVKLNNEDKDAISQLLNALPLEKQRLNFTAIAAIVYYVYKKYLLRQKVKQKDVAERFGISQAVFSKWFKEFKGLLLGEDV | failed
15 | MVKGLVVAGALLMASGCQMLQSMMPAGDEEMPRVREGTLAALPATETRQVQGIEAGSGPTDDVSIETVMESYKALLPLVDDPRKQVTIRHRLADLEFQRAERKMADTAVDELAGAIEAYQRLLSEYPEREGNDKIYYQLARAWELRGATPQQLDTLDTLVRRYPDSDYWIEAQFRRGDLLFIDGRYREAEQAFDEVTLASQERMADASFLVNAHYMKGWSLFKQAQYQEALFSYVEVLDLVMPEGQPVEDVDQRSQTLIEDLFRVVGLSLSYLDGAETLQALFRQTGGRPYEILVYDRYSELLVEREQYGDAIDVFEAYIEDHPASPWAPRYHIRIIDTLELAGFTRTVPERKADFVSLYGIYSDYWQSAGPDAMGFIEQQLEQLLPELADRQYLLAGESSDQQQADDHYRKAASYYAEFAATFPDHPRTPERLFLLGETYLELEDWAEAIAAFERVAYDYPQDTVSGRAAEAGYASVLAFREYSITWNSLPISEQAAYQELQQLNRLRFANAFPEDPRAPAVYYIALQHEFDRNNWEETVNMAARLVTWQPTPSAELTTEALLLSGHSLSELARYSEAEQAYRDALATMAEDDERRSGVRENLAAAVYRQAEQLADAGNVEAAVGEFLRVGTVVPESALRANAEYDAASLLITANLWEQAIGVLTSFRQAFPDHELIDTVPAKLALAYRETAQWERAADELQQMVALATTPEERRENLLIAAELYDQAGNRDKAIDTWRNYANSHPEPADVYMEAANRLAELYQEADDTVKRDYWLRKQMETVDRNPDAADDRMRYLAASASATLAREALARYDSIRLTLPLNESMTAKTDALERAVNAYKKTASYGLSSFATEAGYQIAHIYGRLGADLMDSERPTGLSELELAQYELLLEEQAYPFEDNAIDIHEQNIRRAREGIFDEWVKRSYEALKVLLPGRYRKEEVTSGVVYELD | failed
16 | MVKKSYVINWARDLANRGVGVNYDGAFGSQCVDLPFWILGKFFGRPISGNAIDLLNSAKAAGYQVIYDAPGVNPRVGDIFVMHSIAYDGKDYGHTGLVIEDSDGHSIKTIEQNVDGNADNLYVGGPARYRTRSFNGIIGWIRPPYENEILENKREETDMRDFFVITNSEYTFAGVHYAKGAVLHVSPTQKRAFWVIADQENFIKQVNKNIEYVEKNASPAFLQRIVEIYQVKFEGKNVH | not failed
